Here are results for one molecule from patent US20230279130A1.

The test has as its target full length human CCR8 (hCCR8) (human) (UniProt P51685).

B1: benchmark anti-CCR8 antibody 4A19 (Bristol Myers Squibb) (antibody, from another filing, IgG1, V domains shown)
VH: QVQLVQSGAEVKKPGASVKVSCKASGYTFTDSEMHWVRQATGQGLEWMGAIQPETGGTAYNQKFKARVTMTRDTSISTAYMELSSLRSEDTAVYYCARRRRNFDYWGQGTLVTVSS
VL: DIVMTQTPLSLSVTPGQPASISCRSSQSLFHSSGNTYLHWYLQKPGQPPQLLIYKVSNRFSGVPDRFSGSGSGTDFTLKISRVEAEDVGVYYCSQSTHVPFTFGQGTKLEIKR
Consider B1, for which the IC50, inhibition of chemotaxis of hCCR8-transfected P815 cells to 1 nM CCL1 (intact IgG1, Cell Titer Glo) was 6.53 ng/mL.
